T1: S0_2.126 (synthetic construct (de novo design))
T1 chain: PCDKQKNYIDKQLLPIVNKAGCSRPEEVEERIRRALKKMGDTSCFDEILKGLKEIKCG

B1: D25 antibody (antibody, V domains shown)
VH: QVQLVQSGAEVKKPGSSVMVSCQASGGPLRNYIINWLRQAPGQGPEWMGGIIPVLGTVHYAPKFQGRVTITADESTDTAYIHLISLRSEDTAMYYCATETALVVSTTYLPHYFDNWGQGTLVTVSS
VL: DIQMTQSPSSLSAAVGDRVTITCQASQDIVNYLNWYQQKPGKAPKLLIYVASNLETGVPSRFSGSGSGTDFSLTISSLQPEDVATYYCQQYDNLPLTFGGGTKVEIK

How the values were obtained:
[1] = molecular target: prefusion RSVF (preRSVF), prefusion-stabilized respiratory syncytial virus fusion protein (respiratory syncytial virus) (UniProt P03420)
Sequence of prefusion RSVF (preRSVF), prefusion-stabilized respiratory syncytial virus fusion protein (respiratory syncytial virus) (P03420 135-513): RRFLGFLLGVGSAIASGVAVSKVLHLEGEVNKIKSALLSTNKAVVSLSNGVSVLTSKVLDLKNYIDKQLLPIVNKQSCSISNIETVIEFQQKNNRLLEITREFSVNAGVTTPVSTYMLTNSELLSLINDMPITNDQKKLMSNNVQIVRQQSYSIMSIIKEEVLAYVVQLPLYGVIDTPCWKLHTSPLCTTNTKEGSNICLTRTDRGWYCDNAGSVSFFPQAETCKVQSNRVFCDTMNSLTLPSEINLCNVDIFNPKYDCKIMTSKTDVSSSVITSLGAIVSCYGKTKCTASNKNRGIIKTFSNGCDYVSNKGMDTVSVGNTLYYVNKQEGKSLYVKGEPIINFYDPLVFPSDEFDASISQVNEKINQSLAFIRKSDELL

[2] = molecular target: T1, S0_2.126; assay: SPR

Molecule | Kd [1] [nM] | Kd [2] [nM]
D25 antibody | 0.15 | –
B1 | – | ~0.05

Source: PMC7391827 (Science (New York, N.Y.), 2020)
